Experimental data as given in the supplement of paper PMC12042874.
± gives the uncertainty stated by the source.

Experiment: amyloid nucleation score (Sup35N fusion, yeast selection) (log enrichment); library NNK2; higher = more nucleation; inactive = no reads after selection
In short: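 The nucleation score equals the log enrichment of output over input reads from DiMSum, centred on the mode score of non-aggregating sequences. It was computed only for sequences with 100 or more input reads. The reads came from Illumina sequencing of plasmid inserts from psi-negative yeast expressing Sup35N fused to peptides of 20 random codons, induced with 100 μM copper sulfate for 24 hours and grown 7 days at 30°C without adenine and uracil.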

Substance | amyloid nucleation score
KSWHPRFQSDMKFHLFCLVV | -0.19 ± 0.56
TVLWSRLDPPPRERKL | 1.13 ± 0.34
KWITVYETVNCMSGWFIQDL | 6.622 ± 0.033
SSCIFYFTIRTNQTYLGI | 6.93 ± 0.06
WMWPPMPLGKVAQRGLAVVC | 1.28 ± 0.22
KSRNYIFSGYELVASPSSVK | inactive
SAGEKWWKGMHYARGRPVRR | 0.726 ± 0.2
LFEAWSIYIYFASLKGTAGG | -1.26 ± 1.1
LISTELGPTSFYLHKSLSSR | -1.02 ± 0.62
FLVVGGT | -0.112 ± 0.21
LQSCAGTFTCDCVVGRNYGR | 0.31 ± 0.23
VLSRVDQSTGVIGQTGMVAC | 0.6 ± 0.17
SALERVKSWSQGNNSIGDHI | -0.418 ± 1.1
LTYIRMQVHLVDYDRDALG | -1.32 ± 0.49
HVAWGHFLLIHIFHVNYGYL | -0.627 ± 1.1
LHQGSVCWDWLPVYEVTVLG | 0.049 ± 0.44
ITHCLTAFSVLWILVYVW | inactive
IRANGDKSVYM | 2.21 ± 0.076
CTFSRMSVFACILANQSVFY | 7.861 ± 0.038
SFHYLYWIIRLVGRVYLDEG | -0.195 ± 0.36
TDIRTSGDERWAFDSMRTGD | 0.701 ± 0.37
HRLLVPDHTMYVSLKRKGLR | 0.092 ± 1.1

Substance | amyloid nucleation score
ATSMVSSTRVHVHFDHVRVE | 6.54 ± 0.066
WHDRDTITGSITIKKMH | -0.702 ± 0.32
SCSANCRISLDSSRVVVPYY | 0.571 ± 0.64
TIILG | -0.637 ± 0.27
CTHHKCVWGIWSTFSVDSEL | -0.288 ± 1.1
HKIPLFYCSYTELGSSVERR | 1.38 ± 0.15
IIQRRK | -0.157 ± 0.27
RCRVFYQNHIYLGFLKCNQS | 1.42 ± 0.16
KTKVL | 0.348 ± 0.65
IFCLPIKKRVMYNHGLTIFG | 0.461 ± 0.29
AFNERAYYVGGLTADME | 0.753 ± 0.43
RVYLMLLVQYRTWSYVFVDC | -0.402 ± 0.26
CVFKVVPLVL | 0.005 ± 1
TMNIKLWGAGTRRMFEMEPG | 2.35 ± 0.22
FYHYDLLYRSGVLWRNHHGP | 2.77 ± 0.1
SFGWAYSVICLFIALTRTFL | -0.123 ± 0.26
SKQTRYSSCGIISGLVDPFA | -0.329 ± 0.23
SFVRPGGWPNK | -0.264 ± 0.76
SWAQRCDGGMYMRDCWLMGS | 0.361 ± 0.33
NRKLWVYIFSELSDDGLQFR | inactive
PAERSCGQCFQEFSWY | 0.102 ± 1.1
GDIRLLSRNVLGYIGALLDL | 0.179 ± 0.39

Substance | amyloid nucleation score
NRCRNNGQLRGQCICGSVCL | -0.284 ± 0.39
QSSTYLSPRLHTISDIPYNF | -0.781 ± 0.38
PCLMVIRRWMITVFYQKLSG | 0.181 ± 0.2
TIDFWVRFYVRFYSRDGFYY | -2.33 ± 0.78
INHKQGCSTVWPVAKVCMLV | 0.201 ± 1
GVRMQLFGTLMSSAHQVRVG | 0.69 ± 0.17
SKRFIVIATLNTYMFQKLEF | inactive
WRAIVPSGK | 0.067 ± 0.63
RCMGPIVPFDVNS | -0.704 ± 0.33
LYGRYANERWRLNSLDEKVT | 0.881 ± 0.45
SLGCSAFR | -1.62 ± 0.62
PKPLVGMLCCHSMTRGKVTL | 3.28 ± 0.07
MVGCFWVMFVGREIYSRVRS | -0.915 ± 0.26
HFIIYYDSYNTMVIGEFAVQ | inactive
PLDGEIRREHVLAYEE | -0.454 ± 0.48
LFEMP | 0.728 ± 0.74
SWFVRLGTRNWYTLRRVVIG | -0.315 ± 0.29
VFCHLE | 2.43 ± 0.13
WVLYGASLCYPWVTSSKLRA | 0.589 ± 0.42
FAKLKIIGSARKYK | -1.19 ± 0.61
GDSNG | -0.532 ± 0.29
AYRVWRRGVEMMRNPFLPVA | 3.6 ± 0.064

Substance | amyloid nucleation score
VWLNSHFLMGRI | -1.46 ± 0.54
CEEHDFMTSFICIAWAWKWL | -0.66 ± 0.48
ELWVSQTTNEFSFVVGHVVC | 0.025 ± 0.5
MSKYFWVSRGSSIITTW | -0.539 ± 0.37
GMAFAKA | 0.077 ± 0.63
GYDGRFIASRSVYFKARIGG | -0.056 ± 0.29
YFWGMFEYW | inactive
PSVFEGRK | -0.843 ± 0.63
TYSVGSSYCLRRSFGAGFFS | 0.728 ± 0.25
AANWGNRGYMVCEHCVIDV | -0.054 ± 0.46
KNIAISSRVADAGFWL | 2.31 ± 0.093
LAWSVLNMFRKVAFN | 0.089 ± 1.1
SCMFYYCCTDTYKVPYSDAM | 7.759 ± 0.067
LYIDLHDEALRTTKMDMLNG | inactive
NSSVCVRNRCGVWIDLKGII | 5.06 ± 0.095
FRGVLWLSYLQDYRFDLYCM | -0.773 ± 0.61
SRVWFVNPAPYPADTSELAK | 0.509 ± 0.8
EMICVYSNFMKWVWSSFQTV | -0.832 ± 0.33
NLIESWTVYCIGLGG | inactive
